Among the data in US20180002420A1 (TRELLIS BIOSCIENCE, published 2018) are binding result and Kd values, retold here.

For assay [1], the target named is T1, KIR3DL3 Extracellular Domain (UniProt Q8N743 26-322, limits assumed).
T1 construct: extracellular domain; ECD either purchased or produced in house; also called KIR3DL3 ECD
The assay is described as follows: adsorption ELISA on coated KIR ECD, serial dilutions; ND: not detectable. How it is done: (§1) The mAbs prepared in Example 1 were tested in adsorption ELISA using different KIR Extracellullar Domains (ECD), either purchased or produced in house. Serial dilutions allowed calculating binding affinities (listed below in Table 1 in nM); ND: not detectable.
A general note: ELISA stands for enzyme-linked immunosorbent assay.

For assay [2], the target named is T2, KIR3DS1 Extracellular Domain (UniProt Q14943 22-340, limits assumed).
T2 construct: extracellular domain; ECD either purchased or produced in house; also called KIR3DS1 ECD
The assay is described as above. How it is done:
as §1

The target in assay [3] is T3, KIR2DS4 Extracellular Domain (UniProt P43632 22-245, limits assumed).
T3 construct: extracellular domain; ECD either purchased or produced in house; also called KIR2DS4 ECD
The description is as above. The method, then: as §1

The target of assay [4] is T4, KIR2DL1 Extracellular Domain (UniProt P43626 22-245, limits assumed).
T4 construct: extracellular domain; ECD either purchased or produced in house; also called KIR2DL1 ECD
The description is as above. How it is done:
as §1

Assay [5] concerns the target T5, KIR2DL4 Extracellular Domain (UniProt Q99706 22-242, limits assumed).
T5 construct: extracellular domain; ECD either purchased or produced in house; also called KIR2DL4 ECD
Described as above. How it is done:
as §1

The target in assay [6] is T6, KIR3DL1 Extracellular Domain (UniProt P43629 22-340, limits assumed).
T6 construct: extracellular domain; ECD either purchased or produced in house; also called KIR3DL1 ECD
The description is as above. How it is done: as §1

Another assay deals with T7, BSA (UniProt P02769 25-607).
T7 construct: Control protein in the adsorption ELISA
Briefly: adsorption ELISA on coated BSA control, serial dilutions; ND: not detectable.

Assay [7] deals with T8, KIR3DL2 Extracellular Domain (UniProt P43630 22-340, limits assumed).
T8 construct: extracellular domain; ECD either purchased or produced in house; also called KIR3DL2 ECD
Briefly: adsorption ELISA on coated KIR ECD, serial dilutions; printed as 'Affinity nM'. The method, then:
as §1

In assay [8] the target is T9, KIR2DL2 Extracellular Domain (UniProt P43627 22-245, limits assumed).
T9 construct: extracellular domain; ECD either purchased or produced in house; also called KIR2DL2 ECD
The description is as above. The method, then: as §1

For assay [9], the target named is T10, KIR2DL3 Extracellular Domain (UniProt P43628 22-245, limits assumed).
T10 construct: extracellular domain; ECD either purchased or produced in house; also called KIR2DL3 ECD
The description is as above. The method, then:
as §1

For assay [10], the target named is T8, KIR3DL2 Extracellular Domain. The assay is described as follows: adsorption ELISA on coated KIR ECD, serial dilutions; ND: not detectable. How it is done:
as §1

The target of assay [11] is T3, KIR2DS4 Extracellular Domain. The assay is described as follows: adsorption ELISA on coated KIR ECD, serial dilutions; printed as 'Affinity nM'. The method, then:
as §1

Assay [12] concerns the target T4, KIR2DL1 Extracellular Domain. The description is as above. How it is done:
as §1

Assay [13] has as its target T2, KIR3DS1 Extracellular Domain. Described as above. How it is done: as §1
For assay [14], the target named is T6, KIR3DL1 Extracellular Domain. The assay is described as above. The method, then: as §1
Assay [15] deals with T5, KIR2DL4 Extracellular Domain. Described as above. How it is done: as §1

T3 sequence (P43632 22-245 limits assumed): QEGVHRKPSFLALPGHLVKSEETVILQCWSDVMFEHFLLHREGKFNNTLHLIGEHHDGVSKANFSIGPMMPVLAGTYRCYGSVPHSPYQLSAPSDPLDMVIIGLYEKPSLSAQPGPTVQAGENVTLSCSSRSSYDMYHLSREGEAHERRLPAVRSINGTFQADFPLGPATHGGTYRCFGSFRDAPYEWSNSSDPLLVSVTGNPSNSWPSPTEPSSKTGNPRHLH
T10 sequence (P43628 22-245 limits assumed): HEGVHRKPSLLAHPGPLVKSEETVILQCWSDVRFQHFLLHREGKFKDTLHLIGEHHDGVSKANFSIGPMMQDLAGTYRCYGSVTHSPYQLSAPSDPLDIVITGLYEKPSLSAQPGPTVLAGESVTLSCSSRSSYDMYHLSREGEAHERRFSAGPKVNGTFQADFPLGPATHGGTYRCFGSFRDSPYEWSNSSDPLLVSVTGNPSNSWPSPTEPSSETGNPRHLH
T5 sequence (Q99706 22-242 limits assumed): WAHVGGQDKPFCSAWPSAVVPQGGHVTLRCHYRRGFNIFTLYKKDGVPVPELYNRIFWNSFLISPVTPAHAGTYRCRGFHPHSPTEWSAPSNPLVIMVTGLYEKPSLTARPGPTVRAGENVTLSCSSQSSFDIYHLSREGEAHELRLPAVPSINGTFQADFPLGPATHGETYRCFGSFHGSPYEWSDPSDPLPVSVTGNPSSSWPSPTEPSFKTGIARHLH
T8 sequence (P43630 22-340 limits assumed): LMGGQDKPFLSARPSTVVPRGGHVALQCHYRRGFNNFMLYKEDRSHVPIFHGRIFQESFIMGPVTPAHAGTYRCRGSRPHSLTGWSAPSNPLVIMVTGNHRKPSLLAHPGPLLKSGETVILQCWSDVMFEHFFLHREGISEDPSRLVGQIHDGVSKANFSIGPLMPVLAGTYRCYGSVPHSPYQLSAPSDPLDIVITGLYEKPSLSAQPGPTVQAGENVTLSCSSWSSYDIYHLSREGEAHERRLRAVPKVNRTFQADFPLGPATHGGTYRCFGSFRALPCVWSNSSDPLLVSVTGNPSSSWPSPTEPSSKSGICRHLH
T9 sequence (P43627 22-245 limits assumed): as the sequence (P43628 22-245 limits assumed) above, with P16R, Q35E, R148C, T200I, E216K counted along it
T7 sequence (P02769 25-607 limits assumed): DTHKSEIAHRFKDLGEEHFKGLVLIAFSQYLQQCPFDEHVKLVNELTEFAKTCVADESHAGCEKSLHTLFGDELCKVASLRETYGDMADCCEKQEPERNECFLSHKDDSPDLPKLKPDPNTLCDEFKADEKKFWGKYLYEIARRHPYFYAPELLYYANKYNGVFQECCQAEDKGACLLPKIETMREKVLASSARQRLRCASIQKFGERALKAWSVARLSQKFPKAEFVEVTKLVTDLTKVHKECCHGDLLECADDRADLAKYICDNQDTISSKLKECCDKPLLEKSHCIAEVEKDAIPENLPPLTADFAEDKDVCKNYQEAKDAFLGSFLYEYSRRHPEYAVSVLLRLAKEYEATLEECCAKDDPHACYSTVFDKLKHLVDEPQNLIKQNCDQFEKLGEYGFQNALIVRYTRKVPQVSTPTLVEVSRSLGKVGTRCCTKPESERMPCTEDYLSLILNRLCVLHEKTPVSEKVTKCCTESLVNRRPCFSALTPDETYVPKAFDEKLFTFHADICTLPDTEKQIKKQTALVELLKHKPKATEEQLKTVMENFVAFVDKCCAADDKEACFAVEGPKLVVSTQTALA
T6 sequence (P43629 22-340 limits assumed): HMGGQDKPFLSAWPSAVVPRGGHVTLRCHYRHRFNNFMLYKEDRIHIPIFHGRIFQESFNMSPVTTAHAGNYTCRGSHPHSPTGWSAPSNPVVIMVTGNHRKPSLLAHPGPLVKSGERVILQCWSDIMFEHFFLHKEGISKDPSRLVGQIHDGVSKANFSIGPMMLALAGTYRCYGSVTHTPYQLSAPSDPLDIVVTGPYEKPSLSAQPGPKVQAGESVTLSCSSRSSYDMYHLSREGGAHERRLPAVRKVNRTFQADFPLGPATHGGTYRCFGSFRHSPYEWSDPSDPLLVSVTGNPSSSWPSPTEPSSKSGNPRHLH
T1 sequence (Q8N743 26-322 limits assumed): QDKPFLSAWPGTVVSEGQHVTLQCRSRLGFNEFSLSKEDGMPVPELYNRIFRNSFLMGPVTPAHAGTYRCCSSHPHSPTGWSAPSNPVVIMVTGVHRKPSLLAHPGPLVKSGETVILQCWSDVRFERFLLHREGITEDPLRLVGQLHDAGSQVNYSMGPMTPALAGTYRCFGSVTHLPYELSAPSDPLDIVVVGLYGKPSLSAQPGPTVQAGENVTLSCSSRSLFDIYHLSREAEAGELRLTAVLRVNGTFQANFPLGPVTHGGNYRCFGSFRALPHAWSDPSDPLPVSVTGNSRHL
T4 sequence (P43626 22-245 limits assumed): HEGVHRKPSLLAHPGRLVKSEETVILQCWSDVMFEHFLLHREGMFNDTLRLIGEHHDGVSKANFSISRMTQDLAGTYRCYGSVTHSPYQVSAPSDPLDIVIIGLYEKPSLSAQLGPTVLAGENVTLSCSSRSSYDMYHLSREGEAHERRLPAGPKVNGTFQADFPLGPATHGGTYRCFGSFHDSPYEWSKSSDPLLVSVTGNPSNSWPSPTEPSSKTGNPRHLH
T2 sequence (Q14943 22-340 limits assumed): as the sequence (P43629 22-340 limits assumed) above, with I47V, S58G, V92M, K136R, G138W, P163S, L166R, P199L, P315L counted along it

B1: TRL8507 (antibody, V domains shown)
VH: QVQLVESGGGVVQPGRSLRLSCAASGFTFSNYGMHWVRQAPGKGLEWVAVISFDGGNKYYADSVKGRFTISRDNSKNTLYLQMNSLRAEDTAVYYCAKSGYFDSSGYFYPYYYYGMDVWGQGTTVTVSS
VL: DIELTQAPSVSVSPGQTARITCSGDALPKEYAYWYQQKPGQAPVLVIYKDSERPSGIPERFSGSSSGTTVTLTISGVQAEDEGDYYCQSADSSGTHVVFGGGTKLTVL
notes: Human variable regions cloned from donor B cells and fused recombinantly to an independently cloned generic constant region; Lambda light chain
One may read the Kd as a measure of binding affinity in units of concentration. Turning to B1, the binding result in assay [1], in assay [2], in [3], in assay [4], in assay [5] and in assay [6] was “no binding” each time. In addition, the binding result in the assay with BSA is recorded as “no binding”. The values for the Kd in [7], in [8] and in assay [9] were 67 nM, 40 nM and 0.1 nM, respectively.

B2: TRL8605 (antibody, V domains shown)
VH: QVQLVQSGGGVVQPGRSLRLSCAVSGFTFSSYGMHWVRQAPGKGLEWVTIISYDGSNYDYADSVKGRFTISRDNSKNMVYLQMNSLRADDTAVYYCAKDGFDYWGQGTLVTVSS
VL: DIVLTQSPDSLAVSLGERATINCKSSQSVLYSSNNRTYLAWFQQKSGQPPKLLIYWASTRQSGVADRFSGSGSGTDFTLTISSLQAEDVAVYYCQQYYTTPFTFGPGTRVDFKR
notes: Human variable regions cloned from donor B cells and fused recombinantly to an independently cloned generic constant region; Kappa light chain
With B2, the binding result (in assay [10]; in assay [1]; in assay [2]; in [5]; in [6]; with BSA) was “no binding” in each case. The dissociation constant Kd stood at 2.6 nM in [11], 0.026 nM in [12], 0.018 nM in assay [8] and 0.005 nM in [9].

B3: TRL8504 (antibody, V domains shown)
VH: QVQLVESGGGVVRPGRSLRLSCAASGFTFNRFAMHWVRQAPGKGLEWVSVISYDGHNKYYIDSVKGRFTISRDDSKNTLHLQMNSLRPEDTAVYYCARARDDGRGIFDYWGQGILVTVSS
VL: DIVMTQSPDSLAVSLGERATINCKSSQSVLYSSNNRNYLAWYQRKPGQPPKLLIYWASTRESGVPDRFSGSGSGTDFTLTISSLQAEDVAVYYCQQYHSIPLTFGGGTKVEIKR
notes: as for B2
As to B3, the binding result (in assay [10]; in assay [1]; in [4]; in assay [5]; with BSA) was “no binding” in each case. The Kd in assay [13] was 54 nM; in [11], 55 nM; in assay [8], 12 nM; in [9], 38 nM; in assay [14], 10 nM.

B4: TRL8608 (antibody, V domains shown)
VH: QVQLVQSGAEVKKPGASVKISCKASGYTFTSYYMHWLRQAPGQGLEWMGVINPTDGSTSYAQKFHGRVTMTRVTSTSTVYMDLSSLRSDDTAMYYCAKAHIHAAEGEWFDPWGQGTLVTVSS
VL: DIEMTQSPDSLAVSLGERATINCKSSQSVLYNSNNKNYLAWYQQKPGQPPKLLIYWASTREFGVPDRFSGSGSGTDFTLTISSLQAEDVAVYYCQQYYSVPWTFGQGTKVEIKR
notes: as for B2
Turning to B4, the binding result (in assay [10]; in assay [1]; with BSA) was “no binding” each time. Further, the equilibrium dissociation constant (Kd) in assay [13] worked out at 1800 nM; in assay [12] it was 1100 nM; in assay [8], 1800 nM; in assay [9] it was 79 nM; in assay [15], 2000 nM; in assay [14] it was 1900 nM.
